Data reported in patent publication CN114106182A (ZHONGSHAN KANGFARE BIOLOGICAL MEDICINE CO LTD, dated 2022).

What was measured:
human TIGIT-mFc [1] = target: T1, human TIGIT-mFc (human; mouse, UniProt Q495A1 22-141, limits assumed); assay: indirect ELISA, TIGIT-mFc captured by goat anti-mouse IgG Fc (Table 1 experiment)
T1 construct: Made in house (Akeso, lot 20171110); also called 人TIGIT-mFc; not shown: Fc fragment of mouse IgG (mFc)
T1 sequence (looked up): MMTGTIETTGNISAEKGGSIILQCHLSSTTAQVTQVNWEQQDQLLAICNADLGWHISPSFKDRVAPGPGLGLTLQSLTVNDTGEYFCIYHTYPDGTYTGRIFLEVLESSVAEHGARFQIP

human TIGIT-mFc [2] = target: T1, human TIGIT-mFc; assay: competition ELISA on coated TIGIT-mFc; competitor CD155-hFc-Biotin (Table 3 experiment)
human TIGIT-mFc [3] = target: T1, human TIGIT-mFc; assay: BLI (Fortebio), antibody on AHC sensor, TIGIT-mFc 0.62-50 nM, 1:1 fit, 37 degrees
[4] = target: T2, TIGIT antigen on the surface of 293T-TIGIT cells (human, UniProt Q495A1 22-244); assay: flow cytometry on 293T-TIGIT cells, FITC goat anti-human IgG
T2 construct: whole, on cells; also called Jurkat-TIGIT (TIGITFL)
T2 sequence (looked up): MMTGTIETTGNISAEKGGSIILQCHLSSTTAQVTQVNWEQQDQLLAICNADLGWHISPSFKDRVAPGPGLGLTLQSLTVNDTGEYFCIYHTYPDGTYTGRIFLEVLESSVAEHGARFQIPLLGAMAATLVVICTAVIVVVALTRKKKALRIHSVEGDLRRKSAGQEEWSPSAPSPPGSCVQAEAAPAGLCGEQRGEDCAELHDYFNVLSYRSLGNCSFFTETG

human TIGIT-mFc [5] = target: T1, human TIGIT-mFc; assay: competition ELISA on coated TIGIT-mFc; competitor CD155-hFc-Biotin (Table 4 experiment)
human TIGIT-mFc [6] = target: T1, human TIGIT-mFc; assay: indirect ELISA, TIGIT-mFc captured by goat anti-mouse IgG Fc (Table 2 experiment)
[7] = target: T2, TIGIT antigen on the surface of …; assay: FACS competition on 293T-TIGIT cells; competitor CD155-mG1Fc (10 nM)
[8] = target: T2, TIGIT antigen on the surface of …; assay: FACS competition on 293T-TIGIT cells; competitor CD112-mG1Fc (30 nM)
human TIGIT-mFc [9] = target: T1, human TIGIT-mFc; assay: indirect ELISA screening of hybridomas on human TIGIT-mFc

B1: BMS 22G2 (antibody, human IgG1, kappa, V domains shown)
VH: QVQLQESGPGLVKPSETLSLTCTVSGGSVSSGIYYWSWIRQPPGKGLEWIGYIYYSGSTNYNPSLKSRVTISVDTSKNQFSLKLSSVTAADTAVYYCARDYYVSGNYYNVDYYFFGVDVWGQGTTVTVSS
VL: EIVLTQSPATLSLSPGERATLSCRASQSVSSYLAWYQQKPGQAPRLLIYDASNRATGIPARFSGSGSGTDFTLTISSLEPEDFAVYYCQQRSNWPPLFTFGPGTKVDIKR
notes: Positive control anti-TIGIT antibody
Q: Which results are given for B1?
A: EC50 (human TIGIT-mFc [1]): 0.017 nM; EC50 (human TIGIT-mFc [2]): 0.513 nM

B2: BMS 22G2(G1DM) (antibody, V domains shown)
VH: QVQLQESGPGLVKPSETLSLTCTVSGGSVSSGIYYWSWIRQPPGKGLEWIGYIYYSGSTNYNPSLKSRVTISVDTSKNQFSLKLSSVTAADTAVYYCARDYYVSGNYYNVDYYFFGVDVWGQGTTVTVSS
VL: EIVLTQSPATLSLSPGERATLSCRASQSVSSYLAWYQQKPGQAPRLLIYDASNRATGIPARFSGSGSGTDFTLTISSLEPEDFAVYYCQQRSNWPPLFTFGPGTKVDIK
Q: For B2, which Kd (human TIGIT-mFc [3]) is on record?
A: 0.628 nM

B3: RG6058(G1DM) (antibody, human IgG1, kappa, L234A L235A, V domains shown)
VH: EVQLQQSGPGLVKPSQTLSLTCAISGDSVSSNSAAWNWIRQSPSRGLEWLGKTYYRFKWYSDYAVSVKGRITINPDTSKNQFSLQLNSVTPEDTAVFYCTRESTTYDLLAGPFDYWGQGTLVTVSS
VL: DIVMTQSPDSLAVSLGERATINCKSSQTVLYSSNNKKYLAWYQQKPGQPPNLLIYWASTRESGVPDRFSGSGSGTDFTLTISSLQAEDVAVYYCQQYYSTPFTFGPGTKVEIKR
notes: Positive control anti-TIGIT antibody (Tiragolumab variable regions, G1DM constant region)
Q: What does the source list for B3?
A: EC50 [4]: 1.15 nM; EC50 (human TIGIT-mFc [5]): 0.425 nM; EC50 (human TIGIT-mFc [6]): 0.017 nM; EC50 [7]: 1.22 nM; EC50 [8]: 1.29 nM; Kd (human TIGIT-mFc [3]): 0.847 nM

B4: 26B12 (antibody, V domains shown)
VH: EVQLQESGPGLVKPSQSLSLTCTVTGHSFTSDYAWNWIRQFPGNRLEWMGYISYSDSTNYNPSLKSRISITRDTSKNQFFLQMNSVTTEDTATYYCARLDYGNYGGAMDYWGQGTSVTVSS
VL: DIVLTQSHEFMSTSLRDRVSITCKSSQHVSTAVAWYQQKPGQSPKLLIYSASYRYTGVPDRFTGSGSGTDFTFTISSVKAEDLAVYYCQQHYITPWTFGGGTKLEIK
notes: Mouse monoclonal antibody from hybridoma; also called monoclonal antibody secreted by hybridoma LT019 (CCTCC NO: C2020208)
Q: Does B4 bind (human TIGIT-mFc [9])?
A: binds
